According to the RNAGym collection of RNA variant scans (doi:10.7554/elife.80360):

B1: HDV Ribozyme (parent)
chain: GGCCGGCAUGGUCCCAGCCUCCUCGCUGGCGCCGGCUGGGCAACAUUCCGAGGGGACCGUCCCCUCGGUAAUGGCGAAUGGGACCCA

Variants of: B1
Assay: self-cleavage, relative activity (ratio to wild type); higher = more cleavage; co-transcriptional

Row | Variant | self-cleavage
1 | GGCCGGCAAGGUCCCAGCCUCCUCGCUGGCGCCGGCUCGGCAACAUUCCGAGGGGACCGUCCCCUCGGUAAUGGCGAAUGGGACCCA | 0.237
2 | GGCCGGCAUGGUCCCAGCCUCCUCGCUGGCGCCGGCUGGGCACCAUGCCGAGGGGACCGUCCCCUCGGUAAUGGCGAAUGGGACCCA | 0.302
3 | GGCCGGCAUGCUCCCAGCCUCCUCGCUGGCGCCGGCUGGGCAACAUUCCGAGGGGACCGUCCCCUCGGUAAUGGCGAAUAGGACCCA | 0.136
4 | GGCCGGCAUGGUCCCAGCCUUCUCGCUGGCGCCGGCUGGGCAACAUUCCGAGGGGACCGUCCACUCGGUAAUGGCGAAUGGGACCCA | 0.234
5 | GGCCGGCAUGCUCCCAGCCUCCUCGCUGGCGCCGGCUGGGCAACAUUCCGAGGGGACCGGCCCCUCGGUAAUGGCGAAUGGGACCCA | 0.256
6 | GGCCGGCAUGGUCCCAGCCUCCUCGCUGGCUCCGGCUGGGCAACAUUCCGAGGGGACCGUCCCCUCGGUAAUGGCGAAUGGGGCCCA | 0.16
7 | GGCCGGCAUGGUCCCAGCCUCCUCGCUGGCGCCGGCUGGGCAACAUACCGAGGGGACGGUCCCCUCGGUAAUGGCGAAUGGGACCCA | 0.855
8 | GGCCGGCAUGGUCCCAGCCUCCUCGCUGGCGCCGCCUGGGCAACAUUCCGAGGGGACCGUCCCCUCGGUAAUGGCGAAUGGGAUCCA | 0.256
9 | GGCCGGCACGGUCCUAGCCUCCUCGCUGGCGCCGGCUGGGCAACAUUCCGAGGGGACCGUCCCCUCGGUAAUGGCGAAUGGGACCCA | 0.776
10 | GGCCGGCAUGGUCCCAGCCUCCUCGCUGGCGCCGGCUGGGCAGCCUUCCGAGGGGACCGUCCCCUCGGUAAUGGCGAAUGGGACCCA | 0.0504
11 | GGCCGGCAUGGUCCCAGCCUCCUCGCCGGCGCCGGUUGGGCAACAUUCCGAGGGGACCGUCCCCUCGGUAAUGGCGAAUGGGACCCA | 0.404
12 | GGCCGGCAUGGCCCCAGCCUCCUCGCUGGCGCCGGCUGGGCAACAUUCCGAGGGGACCGUCCCCUCGGUAAUGGCGAAUGGGACCCG | 0.369
13 | GGCCGGCAUGGUCCCAGCCUGCUCGCUGGCGCCGGCUGGGCAACAUUCCCAGGGGACCGUCCCCUCGGUAAUGGCGAAUGGGACCCA | 0.116
14 | GGCCAGCAUGGUCCCAGCCUCCUCGCUGGCGCCGGCUGGGCAACAUUCCGAGGGGACCGUCCCCUCGGUAAUGGCCAAUGGGACCCA | 0.0959
15 | GGCCAGCAUGGUCCCAGCCUCCUCGCUGGCGUCGGCUGGGCAACAUUCCGAGGGGACCGUCCCCUCGGUAAUGGCGAAUGGGACCCA | 0.198
16 | GACCGGCAUGGUCCCAGCCUCCUCGCUGGCGCCGGCUGGGCAACAUUCCGAGGGGACCGUGCCCUCGGUAAUGGCGAAUGGGACCCA | 0.102
17 | GGCCGGCAUAGUCCCAGCCUCCGCGCUGGCGCCGGCUGGGCAACAUUCCGAGGGGACCGUCCCCUCGGUAAUGGCGAAUGGGACCCA | 0.181
18 | GGCCGGCAUGGUGCCAGCCUCCUCGCUGGCGCCGGCUGGGCAACAUUCCGAGGGGACGGUCCCCUCGGUAAUGGCGAAUGGGACCCA | 0.119
19 | GGCCGGCAUGGUCCCAGCCUCCUCGCUGGCGCCGGCUGGGCAACAUUCCGAGCGGACCGUCCCCUGGGUAAUGGCGAAUGGGACCCA | 1.01
20 | GGCCGGCAUGGUCCCAGCCUCCUCGCUGGCGCCGGCUGGGCAACAUUCCGAGGUGACCGUCCCCUCGGUAAUCGCGAAUGGGACCCA | 0.297
21 | GGCCGGCAUGGUCCCAGCCUCCUCGCUGGCGCAGGCUGGGCAACAUUCCGAGGGGACCGUCCCCUCGGUAAUGGCGAAUGGGAUCCA | 0.193
22 | GGCCGGCAUGGUCCCAGCCUCCUCGAUGGCGCCGGCUGGCCAACAUUCCGAGGGGACCGUCCCCUCGGUAAUGGCGAAUGGGACCCA | 0.601

Row | Variant | self-cleavage
23 | GGCCGGCAUGGUCCAAGCCUCCUCGCUGGCGCCGGCUGGGCAACAUUCCGAGGGGACCGUCCCCUCGGUAAUGGCGAAUGGGGCCCA | 0.284
24 | GGCCGGCAUGGUCCCAGCGUCCUCGCUGGCGCCGGCUGGGCAACAUUCAGAGGGGACCGUCCCCUCGGUAAUGGCGAAUGGGACCCA | 0.0354
25 | GGCCGGCAUGGUCCCAGCCUCCUCGCUGGCGCCGGCUGGGCAACAUUCCGAGGGGAACGUCCCCUCGGUAAUGGCGAAUCGGACCCA | 0.166
26 | GGCCGGCAUGGUCCCAGCCUCCUCGCUGGCGCCGGCUGGGCAACAUUCCGAGGGGACCGUCCUCUCGGUAAGGGCGAAUGGGACCCA | 0.776
27 | GGCCGGCAUGGUCCCAGCCUCCUCGCUGGCGCCGGCUGUGCAACAUUCCGAGGGGACCGUCCCCUUGGUAAUGGCGAAUGGGACCCA | 0.724
28 | GGCCGGCAUGGUCCCAGCCUCCUCGCGGGCGCCGGCUGGGCAACAUUCCGAGGGGACCGUCCUCUCGGUAAUGGCGAAUGGGACCCA | 1.11
29 | GGCCGGCAUGGUCCCAGCCUCCUCGCUGGCGCCGGCUGGGCAACAUUCCGAGGGGACCGUCCCCUCGAUAAUGGCGAAUGGGACCAA | 0.822
30 | GGCCGGCAUGGUCCCAGCCUCCUCGCUGGCGCCGGCUGGGCAACAUUUCGAGGGGACCGUCCCCCCGGUAAUGGCGAAUGGGACCCA | 1.07
31 | GGCCGGCAUGGUCCCAGCCUCCUCGGUGGCGCCGGCUGGGCUACAUUCCGAGGGGACCGUCCCCUCGGUAAUGGCGAAUGGGACCCA | 0.449
32 | GGCCGGCAUGGUCCCAGCCUCCUCGUUGGCGCCGGCUGGGCAACAUUCCGAGUGGACCGUCCCCUCGGUAAUGGCGAAUGGGACCCA | 1.22
33 | GGCCGGCAUGGUCCCAGCCUCCUCGCUGGCGCCGGCUGGGCAACAUUCCGAGGGGACCAUCCCCUCGGUAAUGGAGAAUGGGACCCA | 0.163
34 | GGCCGGCAUGGUCCCAGCCUCCUCGCUGGCGCCGGCUGGGCAACAUUCCGAUGGGACCGUCCCCUUGGUAAUGGCGAAUGGGACCCA | 0.737
35 | GGCCGGCAUGGACCCAGCCUCCUCGCUAGCGCCGGCUGGGCAACAUUCCGAGGGGACCGUCCCCUCGGUAAUGGCGAAUGGGACCCA | 0.0314
36 | GGCGGGCAUGGUCCCAGCCUCCUCGCUGGCACCGGCUGGGCAACAUUCCGAGGGGACCGUCCCCUCGGUAAUGGCGAAUGGGACCCA | 0.0639
37 | GGCCGGCAUGGUCCCAGCCUCCUCGCUGGCGCCGGCUGGGCAACAUUCCGAGGGGACCGUCCCCUCGGUAAUGGCGAAUGUAACCCA | 0.277
38 | GGCCGGCAUGGUCCCAGCCUCCUCGCUGGCGACGGCUGGGCACCAUUCCGAGGGGACCGUCCCCUCGGUAAUGGCGAAUGGGACCCA | 0.162
39 | GGCCGGCAUGGUCCUAGCCUCCUCGCUGGCGCCGGCUGGCCAACAUUCCGAGGGGACCGUCCCCUCGGUAAUGGCGAAUGGGACCCA | 0.249
40 | GGCCGGCAUGGUCCCAGCCUCCUCGCUGGCGCCGGCGGGGCAACAUUCCGAGGGGACCGUCCCCUCGAUAAUGGCGAAUGGGACCCA | 0.246
41 | GGCCGGCAUGGUCCCAGCCUCCUCGCUGGCGCCGGCUGGGCAACAUUCCGAGGGGACCGUCACUUCGGUAAUGGCGAAUGGGACCCA | 0.892
42 | GGCCGGCAUGGGCCCAGCCUCCUCGCUGGCGCCGGCUGGGCAACAUUCCGAUGGGACCGUCCCCUCGGUAAUGGCGAAUGGGACCCA | 0.617
43 | GGCCGGCAUGGUCCCAGCCUGCUCGCUGGCGCCGGCUGGGCAACAUUCCGAGAGGACCGUCCCCUCGGUAAUGGCGAAUGGGACCCA | 0.0511
44 | GGCCGGCAUGGUCCCAGCCUCCUCGCUGGCGCCGGCUGGGCCACAUUCCGAGGGGACCGGCCCCUCGGUAAUGGCGAAUGGGACCCA | 0.269

Row | Variant | self-cleavage
45 | GGCCGGCAUGGUCUCAGCCUCCUCGCUGGCGCCGGCUGGGCAACAUUCCGAGGGGACCGUCCACUCGGUAAUGGCGAAUGGGACCCA | 0.957
46 | GGCCGGCAUGGUCCCCGCCUCCUCGCUGGCGCCGGCUGGGCAACAUUCCGAGGCGACCGUCCCCUCGGUAAUGGCGAAUGGGACCCA | 0.87
47 | GGCCGGCAUGGUCCCAGCCUCCUCGCUGGCGCCGCCUGGGCAACAUUCCAAGGGGACCGUCCCCUCGGUAAUGGCGAAUGGGACCCA | 0.0528
48 | GGCCGGCAUGGUCCCAGCCUCCUCGCUGGCGCCGACUGGGCAACAUUCCGAGGGGACCGUCCCCUGGGUAAUGGCGAAUGGGACCCA | 0.655
49 | GGCCGGCAUGGUCCCAGCCGCCUCGCUGGCGCCGGCUGGGCAACAUUCCGAGGGGACCGUCCCCUCGGUAAUGGCGAAUGGGAUCCA | 0.185
50 | GGCCGGGAUGGUCCCAGCCUCAUCGCUGGCGCCGGCUGGGCAACAUUCCGAGGGGACCGUCCCCUCGGUAAUGGCGAAUGGGACCCA | 0
51 | GGCCGGCAUGGGCCCAGCCUCCUCGCUGGCGCCGGCUGGGCAAAAUUCCGAGGGGACCGUCCCCUCGGUAAUGGCGAAUGGGACCCA | 0.604
52 | GGCCGGCAUGGUCCCAGCCUCCUCGCUGGCGCCGGCUGGGCAACAUUCCGAGGGGACCGUCCCCUCGGUCAUGGUGAAUGGGACCCA | 0.0875
53 | GGCCGGCAUGGUCCCAGCCCCCUCGCUGGCGCUGGCUGGGCAACAUUCCGAGGGGACCGUCCCCUCGGUAAUGGCGAAUGGGACCCA | 0.0536
54 | GGCCGGCAGGGUCCCAGCUUCCUCGCUGGCGCCGGCUGGGCAACAUUCCGAGGGGACCGUCCCCUCGGUAAUGGCGAAUGGGACCCA | 0.119
55 | GCCCGGCAUGGUCCCAGCCUCCUCGCUGGCGCCGGCUGGGCAACAUUCCGAGGGGACCGUCCCCUCGGUAAUGGCGAAUGGGACCCC | 0.0523
56 | GGCCGGCAUGGUCCCAGCCUCCUCGCUGACGCCGGCUGGGCAACAUUCCGAGGGGACCGUCCCCUCGGUAAUGGCGAGUGGGACCCA | 0.0804
57 | GGCCGGCAUGGUCCCAGCCUCCUCGCUGGCGCCGGCUGGACAACAUUGCGAGGGGACCGUCCCCUCGGUAAUGGCGAAUGGGACCCA | 1.06
58 | GGCCGGCAUGGUACCAGCCUCCUCGCUGGCGCCGGCUGGGCAACAUUCCGAGGGGACCGUCCCCUCGGUCAUGGCGAAUGGGACCCA | 0.285
59 | GGCCGGCUUGGUCCCAGUCUCCUCGCUGGCGCCGGCUGGGCAACAUUCCGAGGGGACCGUCCCCUCGGUAAUGGCGAAUGGGACCCA | 0.631
60 | GGCCGGCAUGGUCCCGGCCUCCGCGCUGGCGCCGGCUGGGCAACAUUCCGAGGGGACCGUCCCCUCGGUAAUGGCGAAUGGGACCCA | 1.16
61 | GGCCGGCAUGGUCCCAUCCUCCUCGCUGGCGCCGGCUGGGCAACAUUCCGAGGGGACCGUGCCCUCGGUAAUGGCGAAUGGGACCCA | 0.424
62 | GGCCGGCAUGGUCCCAGCCUCCUCGCUGGCGCCGGCUGAGCAACAUUCCGAGGGGACAGUCCCCUCGGUAAUGGCGAAUGGGACCCA | 0.475
63 | GGCCGGCAUGGUCCCAGCCUCCUCGCUGGCGCCGGCUGUGCAACAUUCCGAAGGGACCGUCCCCUCGGUAAUGGCGAAUGGGACCCA | 0.772
64 | GGCCGGCAUGGUCCCAGCCUCCUCGCUGGCGCCGGCUGGUCAACAUUCCGAGGGGACGGUCCCCUCGGUAAUGGCGAAUGGGACCCA | 0.598
